Reference: publication PMC7913699 (Nucleic Acids Research, 2021)

Columns and labels:
RcsB wild-type [1] = biological target: T1, RcsB wild-type (Salmonella Typhimurium, UniProt P58663 1-216); assay: EMSA
T1 sequence: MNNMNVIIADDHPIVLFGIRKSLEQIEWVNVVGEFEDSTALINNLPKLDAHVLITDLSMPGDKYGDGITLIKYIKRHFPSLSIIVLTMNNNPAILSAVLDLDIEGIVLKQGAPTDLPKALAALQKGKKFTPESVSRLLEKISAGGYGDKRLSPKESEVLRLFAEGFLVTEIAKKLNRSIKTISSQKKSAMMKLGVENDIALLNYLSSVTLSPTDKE

RcsB wild-type [2] = biological target: T1, RcsB wild-type; assay: EMSA; remark: listed apart in the source
RcsB wild-type [3] = biological target: T1, RcsB wild-type; assay: EMSA; remark: listed apart in the source
RcsB-L108A = biological target: T2, RcsB-L108A (Salmonella Typhimurium, UniProt P58663 1-216, L108A); assay: EMSA
T2 sequence: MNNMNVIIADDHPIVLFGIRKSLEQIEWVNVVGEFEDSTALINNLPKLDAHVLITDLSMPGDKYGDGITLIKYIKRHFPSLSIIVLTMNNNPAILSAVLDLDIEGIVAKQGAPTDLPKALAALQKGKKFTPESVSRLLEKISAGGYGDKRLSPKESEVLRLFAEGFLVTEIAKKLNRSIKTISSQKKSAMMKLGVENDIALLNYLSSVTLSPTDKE

RcsB wild-type [4] = biological target: T1, RcsB wild-type; assay: crystal structure
crystal structure = biological target: the molecule itself; assay: crystal structure

B1: P1flhDC first GGA to AGA (dsDNA)
DNA 1: CGAATTAAGAAAAATCTTAGGCG
DNA 2: CGCCTAAGATTTTTCTTAATTCG
Does B1 bind (RcsB wild-type [1])?
Result: binds

B2: P1flhDC second AGA to AGG (dsDNA)
DNA 1: CGAATTAGGAAAAACCTTAGGCG
DNA 2: CGCCTAAGGTTTTTCCTAATTCG
Does B2 bind (RcsB wild-type [2])?
Result: binds

B3: flgA (dsDNA)
DNA 1: GTTAATAAGAATATTCCCATCAG
DNA 2: CTGATGGGAATATTCTTATTAAC
Does B3 bind (RcsB wild-type [3])?
Result: binds

B4: P1flhDC (dsDNA)
DNA 1: CGAATTAGGAAAAATCTTAGGCG
DNA 2: CGCCTAAGATTTTTCCTAATTCG
Does B4 bind (RcsB-L108A)?
Result: no binding

B5: PrprA (dsDNA)
DNA 1: CCTATTGAGACGAATCTGATCGG
DNA 2: CCGATCAGATTCGTCTCAATAGG
Does B5 bind (RcsB wild-type [4])?
Result: binds

B6: osmB (dsDNA)
DNA 1: CTCTCTAAGACTTTTCTGACATC
DNA 2: GATGTCAGAAAAGTCTTAGAGAG
Does B6 bind (RcsB wild-type [3])?
Result: binds

B7: nlpD (dsDNA)
DNA 1: ACCTTTCGGAATATTCCCATACT
DNA 2: AGTATGGGAATATTCCGAAAGGT
Does B7 bind (RcsB wild-type [3])?
Result: binds

B8: ytfK (dsDNA)
DNA 1: GATGTTTAGATAATTCTGAATAA
DNA 2: TTATTCAGAATTATCTAAACATC
Does B8 bind (RcsB wild-type [3])?
Result: binds

B9: RcsB from S. Typhimurium, full-length wild-type, bound to phosphomimetic BeF3- (natural protein, UniProt P58663 1-216, looked up)
chain: MNNMNVIIADDHPIVLFGIRKSLEQIEWVNVVGEFEDSTALINNLPKLDAHVLITDLSMPGDKYGDGITLIKYIKRHFPSLSIIVLTMNNNPAILSAVLDLDIEGIVLKQGAPTDLPKALAALQKGKKFTPESVSRLLEKISAGGYGDKRLSPKESEVLRLFAEGFLVTEIAKKLNRSIKTISSQKKSAMMKLGVENDIALLNYLSSVTLSPTDKE
modifications: phosphomimetic BeF3- bound in the active site (phosphorylatable residue D56)
How did the “stoichiometry N” value (crystal structure) turn out when B9 was run?
The value was 2.
